Assay results from PMC12748791 (Nature Communications, 2025).

Biological target: the molecule itself
Assay: cryo-EM structure; full-length AE1 from DSP-cross-linked human erythrocyte ghost membranes in MSP-1E3D1/POPC nanodiscs; dimer configurations IF1/OF, OF/OF and IF1/IF2 separated by 3D classification

B1: Anion Exchanger 1 (AE1) (natural protein, human, UniProt P02730 1-911, looked up)
chain: MEELQDDYEDMMEENLEQEEYEDPDIPESQMEEPAAHDTEATATDYHTTSHPGTHKVYVELQELVMDEKNQELRWMEAARWVQLEENLGENGAWGRPHLSHLTFWSLLELRRVFTKGTVLLDLQETSLAGVANQLLDRFIFEDQIRPQDREELLRALLLKHSHAGELEALGGVKPAVLTRSGDPSQPLLPQHSSLETQLFCEQGDGGTEGHSPSGILEKIPPDSEATLVLVGRADFLEQPVLGFVRLQEAAELEAVELPVPIRFLFVLLGPEAPHIDYTQLGRAAATLMSERVFRIDAYMAQSRGELLHSLEGFLDCSLVLPPTDAPSEQALLSLVPVQRELLRRRYQSSPAKPDSSFYKGLDLNGGPDDPLQQTGQLFGGLVRDIRRRYPYYLSDITDAFSPQVLAAVIFIYFAALSPAITFGGLLGEKTRNQMGVSELLISTAVQGILFALLGAQPLLVVGFSGPLLVFEEAFFSFCETNGLEYIVGRVWIGFWLILLVVLVVAFEGSFLVRFISRYTQEIFSFLISLIFIYETFSKLIKIFQDHPLQKTYNYNVLMVPKPQGPLPNTALLSLVLMAGTFFFAMMLRKFKNSSYFPGKLRRVIGDFGVPISILIMVLVDFFIQDTYTQKLSVPDGFKVSNSSARGWVIHPLGLRSEFPIWMMFASALPALLVFILIFLESQITTLIVSKPERKMVKGSGFHLDLLLVVGMGGVAALFGMPWLSATTVRSVTHANALTVMGKASTPGAAAQIQEVKEQRISGLLVAVLVGLSILMEPILSRIPLAVLFGIFLYMGVTSLSGIQLFDRILLLFKPPKYHPDVPYVKRVKTWRMHLFTGIQIICLAVLWVVKSTPASLALPFVLILTVPLRRVLLPLIFRNVELQCLDADDAKATFDEEEGRDEYDEVAMPV
modifications: N-linked glycosylation at N642; lysines cross-linked with DSP (K539 and K851)
notes: Anion exchanger 1 (band 3), human, 911 residues: cytosolic domain 1-347, linker 348-370, transmembrane domain 371-911; the full-length protein was purified, only the transmembrane domain was resolved in the maps; Native protein from red blood cells; held in lipid nanodiscs (MSP-1E3D1, POPC) with PIP2 and POPC lipids at the dimer interface; also called band 3; SLC4A1
- stoichiometry N: 2
